The test concerns the target amyloid β (1-28) (UniProt P05067). Nature of the test: trapping on beads in buffer, eluate by MALDI-TOF MS; ratio of detection limits.
Chain of UniProt P05067 (P05067 672-699 limits assumed): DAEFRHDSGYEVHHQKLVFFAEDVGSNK

For the substance 6E10 F(ab′)-PEG24 beads (Fab), the fold sensitivity against the IgG-protein G beads of each kind was determined as 5 times.

The values above are taken from US20220017583A1.
